These are literature values, as cited in publication PMC3894449.

Data set [1] addresses IL-2Ralpha (Homo sapiens) (UniProt P01589).
Data set [2] addresses IL-15Ralpha (Homo sapiens) (UniProt Q13261).
Chain of UniProt Q13261 (Q13261 31-205): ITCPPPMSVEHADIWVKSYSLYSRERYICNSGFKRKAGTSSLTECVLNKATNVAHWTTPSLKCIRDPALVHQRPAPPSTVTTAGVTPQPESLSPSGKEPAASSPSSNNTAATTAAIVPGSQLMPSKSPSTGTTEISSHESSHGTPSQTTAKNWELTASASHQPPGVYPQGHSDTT

Chain of UniProt P01589 (P01589 22-240): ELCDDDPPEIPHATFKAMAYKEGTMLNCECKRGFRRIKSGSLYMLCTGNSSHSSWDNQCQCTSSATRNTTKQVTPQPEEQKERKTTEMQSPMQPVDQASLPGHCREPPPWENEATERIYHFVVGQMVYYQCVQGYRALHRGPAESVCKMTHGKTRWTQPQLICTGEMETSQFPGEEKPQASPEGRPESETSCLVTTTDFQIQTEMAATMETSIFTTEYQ

The Kd is the free concentration of one partner at which half of the binding sites on the other are occupied at equilibrium, for simple one-to-one binding. Turning to IL-2 (from UniProt P60568), the Kd in data set [1] was 20 nM.
Turning to IL-15 (from UniProt P40933), the Kd in data set [2] was 0.05 nM.
